From patent publication US20050004025A1 come the findings set out here.

The target in this assay is recombinant human a7 nicotinic acetylcholine receptor expressed in Xenopus oocytes (human) (UniProt P36544). Description: cell-based or functional assay.
recombinant human a7 nicotinic acetylcholine receptor expressed in Xenopus oocytes (human), sequence (P36544 23-502): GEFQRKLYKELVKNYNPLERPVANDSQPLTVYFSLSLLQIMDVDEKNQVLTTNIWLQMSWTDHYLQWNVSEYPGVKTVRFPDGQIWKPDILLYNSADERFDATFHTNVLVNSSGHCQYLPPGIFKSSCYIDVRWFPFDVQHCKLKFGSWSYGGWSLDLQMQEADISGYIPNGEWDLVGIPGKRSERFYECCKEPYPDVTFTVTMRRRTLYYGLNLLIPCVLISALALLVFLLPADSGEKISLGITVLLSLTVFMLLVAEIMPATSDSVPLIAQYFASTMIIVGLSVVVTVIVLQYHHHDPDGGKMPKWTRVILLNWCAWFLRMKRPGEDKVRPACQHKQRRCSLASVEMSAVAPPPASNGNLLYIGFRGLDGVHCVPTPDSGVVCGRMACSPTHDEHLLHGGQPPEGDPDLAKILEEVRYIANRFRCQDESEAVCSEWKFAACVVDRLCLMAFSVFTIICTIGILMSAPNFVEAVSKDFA

On to “recombinant SLURP-1 with C-terminal myc tag and His6 tag (highly purified SLURP-1) (from UniProt P55000 23-103) (ligand)”, for which the EC50 of acetylcholine on the receptor after 2.5 min exposure to 200 pM SLURP-1 (FIG. 5C; control 178 µM; n=6 for each data point) came to 68 µM; the EC50 of acetylcholine on the receptor after SLURP-1 treatment (FIG. 5B; control 175 µM) came to 68 µM; the increase of the amplitude of acetylcholine-evoked macroscopic currents at 200 pM SLURP-1, compared with control (two-electrode voltage clamp, oocytes; n=6) is 421%; the increase of the amplitude of acetylcholine-evoked macroscopic currents at 20 nM SLURP-1, compared with control (two-electrode voltage clamp, oocytes; n=4) turned out to be 1210%.
